# Reference: patent US20240270814A1 (published 2024)
# Positions count from the first letter of the chain named.
# B1: 4259-F6-TCR (TCR, V domains shown)
# Valpha: QKEVEQNSGPLSVPEGAIASLNCTYSDRGSQSFFWYRQYSGKSPELIMFIYSNGDKEDGRFTAQLNKASQYVSLLIRDSQPSDSATYLCAWNSGGSNYKLTFGKGTLLTVNP
# Vbeta: NAGVTQTPKFRVLKTGQSMTLLCAQDMNHEYMYWYRQDPGMGLRLIHYSVGEGTTAKGEVPDGYNVSRLKKQNFLLGLESAAPSQTSVYFCASSYSQAWGQPQHFGDGTRLSIL
# B2: 4266-TCR2 (TCR, V domains shown)
# Valpha: GQNIDQPTEMTATEGAIVQINCTYQTSGFNGLFWYQQHAGEAPTFLSYNVLDGLEEKGRFSSFLSRSKGYSYLLLKELQMKDSASYLCAVYTGGFKTIFGAGTRLFVKA
# Vbeta: EAGVAQSPRYKIIEKRQSVAFWCNPISGHATLYWYQQILGQGPKLLIQFQNNGVVDDSQLPKDRFSAERLKGVDSTLKIQPAKLEDSAVYLCASNLGGGSTDTQYFGPGTRLTVL
# B3: 4266-TCR3 (TCR, V domains shown)
# Valpha: GQNIDQPTEMTATEGAIVQINCTYQTSGFNGLFWYQQHAGEAPTFLSYNVLDGLEEKGRFSSFLSRSKGYSYLLLKELQMKDSASYLCAFYYGGSQGNLIFGKGTKLSVKP
# Vbeta: GAGVSQSPRYKVAKRGQDVALRCDPISGHVSLFWYQQALGQGPEFLTYFQNEAQLDKSGLPSDRFFAERPEGSVSTLKIQRTQQEDSAVYLCASSFGSGSTDTQYFGPGTRLTVL
# B4: 4266-TCR4 (TCR, V domains shown)
# Valpha: B3 Valpha with F90V, Y92P
# Vbeta: B2 Vbeta with N95S, G98T
# Legend:
# Assay in all cases: activation reporter or marker
# [1] = molecular target: T1, p53 Y220C peptide on HLA-DRB1*04:01 (human)
# T1 peptide: RNTFRHSVVVPCE
# [2] = molecular target: T2, p53 wild type (Y220) peptide on HLA-DRB1*04:01 (human)
# T2 peptide: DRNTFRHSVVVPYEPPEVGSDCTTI
# [3] = molecular target: T3, p53 R248W peptide on HLA-A*68:01 (human)
# T3 peptide: SSCMGGMNWR
Binder,binding result [1],binding result [2],binding result [3]
B1,recognises,no recognition,
B2,,,recognises
B3,,,recognises
B4,,,recognises
